Results: patent publication US20240076386A1 (Pfizer, published 2024)

T1: cynomolgus monkey E-selectin, cell-surface expressed (cynomolgus monkey, UniProt P16581 22-610 (human entry))
T1 construct: also called CHO-cynomolgus monkey E-selectin cells; cynomolgus monkey CHO-E
T1 chain: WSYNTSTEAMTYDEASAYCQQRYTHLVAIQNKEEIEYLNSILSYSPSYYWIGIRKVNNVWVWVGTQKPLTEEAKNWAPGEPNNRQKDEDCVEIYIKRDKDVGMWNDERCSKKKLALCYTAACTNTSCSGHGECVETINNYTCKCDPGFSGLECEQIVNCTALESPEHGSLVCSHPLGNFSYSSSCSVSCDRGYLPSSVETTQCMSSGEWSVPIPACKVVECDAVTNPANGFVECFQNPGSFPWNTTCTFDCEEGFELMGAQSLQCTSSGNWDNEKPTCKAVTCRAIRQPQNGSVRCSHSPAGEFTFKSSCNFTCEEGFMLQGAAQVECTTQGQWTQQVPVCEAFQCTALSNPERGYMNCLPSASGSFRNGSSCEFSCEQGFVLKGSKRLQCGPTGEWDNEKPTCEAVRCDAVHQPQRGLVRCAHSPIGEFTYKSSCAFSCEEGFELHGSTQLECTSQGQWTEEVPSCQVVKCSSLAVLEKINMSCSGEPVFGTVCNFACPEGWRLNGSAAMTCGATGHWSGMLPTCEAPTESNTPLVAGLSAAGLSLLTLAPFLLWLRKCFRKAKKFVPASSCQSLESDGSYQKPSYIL

T2: human E-selectin, cell-surface expressed (human, UniProt P16581 22-610)
T2 construct: also called CHO-human E-selectin cells; human CHO-E
T2 sequence: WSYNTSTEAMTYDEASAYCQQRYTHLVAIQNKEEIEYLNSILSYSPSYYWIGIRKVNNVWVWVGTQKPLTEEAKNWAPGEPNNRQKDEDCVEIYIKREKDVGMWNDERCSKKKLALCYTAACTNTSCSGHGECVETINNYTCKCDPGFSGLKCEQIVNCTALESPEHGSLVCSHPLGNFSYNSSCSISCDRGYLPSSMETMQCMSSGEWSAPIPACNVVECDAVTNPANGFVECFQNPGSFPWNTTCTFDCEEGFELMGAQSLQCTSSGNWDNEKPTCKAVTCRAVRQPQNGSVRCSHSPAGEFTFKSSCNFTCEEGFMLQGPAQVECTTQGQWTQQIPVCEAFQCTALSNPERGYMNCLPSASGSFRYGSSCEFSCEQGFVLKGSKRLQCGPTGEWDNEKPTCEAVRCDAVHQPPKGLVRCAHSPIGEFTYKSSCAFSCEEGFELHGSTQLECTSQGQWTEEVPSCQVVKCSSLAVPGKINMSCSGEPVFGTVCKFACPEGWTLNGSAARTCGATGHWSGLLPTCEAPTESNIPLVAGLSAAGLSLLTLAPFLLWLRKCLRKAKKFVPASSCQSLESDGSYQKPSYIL

T3: cynomolgus monkey E-selectin extracellular domain with 10 His purification tail (cynomolgus monkey, UniProt P16581 22-554 (human entry))
T3 construct: also called cynomolgus E-selectin; truncated cynomolgus monkey E-selectin
T3 chain: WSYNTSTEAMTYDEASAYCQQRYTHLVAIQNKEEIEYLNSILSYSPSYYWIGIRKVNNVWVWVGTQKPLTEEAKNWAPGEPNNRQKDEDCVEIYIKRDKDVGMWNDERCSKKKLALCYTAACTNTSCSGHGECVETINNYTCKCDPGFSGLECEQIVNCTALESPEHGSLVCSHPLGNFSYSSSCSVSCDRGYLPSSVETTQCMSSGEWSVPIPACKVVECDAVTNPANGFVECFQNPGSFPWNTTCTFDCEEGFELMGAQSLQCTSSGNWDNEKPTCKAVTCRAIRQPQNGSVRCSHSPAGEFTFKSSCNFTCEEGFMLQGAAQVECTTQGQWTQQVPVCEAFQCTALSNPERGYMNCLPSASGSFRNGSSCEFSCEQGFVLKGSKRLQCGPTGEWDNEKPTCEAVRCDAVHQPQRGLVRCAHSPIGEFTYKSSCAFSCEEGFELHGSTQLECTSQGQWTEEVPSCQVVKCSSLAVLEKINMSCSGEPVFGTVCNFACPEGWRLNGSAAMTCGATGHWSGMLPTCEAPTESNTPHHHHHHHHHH

B1: anti-E-selectin antibody 0158 chimera (antibody, human IgG1, kappa, V domains shown)
VH: QVQLKESGPGLVQPSETLSLTCTVSGFSISTYNVHWLRQPPGKGLEWMGMMWSGGSPDYNSALKSRLSISRDTSKNQVFLKMNSLQSEDTTTYYCARWGGGFDYWGQGVMVTVSS
VL: DIVLTQSPTTLSVTPGETVSLSCRASHSIGTNLHWYQQKTNESPRLLIKFTSQSISGIPSRFSASGSGTDFTLNINNVEFDDVSSYFCQQTQSWPLTFGSGTKLEIKR
notes: rat VH/VL on effector-null human IgG1 and human kappa
B2: anti-E-selectin antibody 0159 chimera (antibody, human IgG1, kappa, V domains shown)
VH: EVQLQQSGAELGKPGTSVKLSCKVSGYNIRSTYMHWVSQRPGKGLEWIGRIDPANGNTIYAEKFKRKATLTADTSSNTAYMQLSQLKSDDRAIYFCAMEVRVSFEYWGQGVMVTVSS
VL: DIQMTQSPSFLSASVGDRVTINCKASQNINKYLDWYQQKLGEGPKLLIYYTNNLHTGIPSRFSGSGSGTDFTLTISSLQPEDVATYFCLQHDSGYTFGAGTKLELKR
notes: as for B1
B3: anti-E-selectin antibody 0170 chimera (antibody, human IgG1, kappa, V domains shown)
VH: EVQLQQSGAELGKPGTSVKLSCKVSGYSIRSTYMHWVNQRPGKGLEWVGRIDPANGNTIYAERFKNKATLTADTSSNTAYMQLSQLKSDDTAIYFCAVEILGIFDYWGQGVMVTVSS
VL: DIQMTQSPSFLSASVGDRVTINCKASQNIDKYLDWYQQKLGEAPKLLMYNTNSLHTGIPSRFSGSGSGTDFTLTISSLQPEDVATYFCLQHNSGYTFGAGTKLELKR
notes: as for B1
B4: anti-E-selectin antibody 0180 chimera (antibody, human IgG1, kappa, V domains shown)
VH: EVQLQQSGAELGKPGTSVKLSCKVSGYKIRSSYMHWVNQRPGKGLEWIGRIDPANGNTIYGDKFKSKATLTSDTSSNTAYIQLSQLKSDDTAIYFCAIDIGTTFDYWGQGVMVTVSS
VL: DIQMTQSPSFLSASVGDRVTINCKASQHINRYLNWYQQKLGEAPKLLIYDANNLQTGIPSRFSGSGSGTDFTLTISSLQPEDVATYFCLQHNSWPNTFGAGTKLELKR
notes: as for B1
B5: anti-E-selectin antibody 0164 chimera (antibody, human IgG1, kappa, V domains shown)
VH: EVQLQQSGAEFGKPGTSVKLSCKVSGYNIRSSYMHWVNQRPGKGLEWIGRIDPANGNTIYAEKFKIKAILTADSSSNTAYMQLSQLKSDDTAIYFCAMDLYSTSEYWGQGVMVTVSS
VL: DIQMTQSPSFLSASVGDRVTINCKTSQNINRYLNWYQQKLGEAPKLLIYNANSLQTGIPSRFSASGSGTDFTLTINSLQPEDVATYFCLQDNSWPLTFGSGTKLEIKR
notes: as for B1
B6: optimized anti-E-selectin antibody 1282 (antibody, human IgG1, kappa, V domains shown)
VH: EVQLVESGGGLVQPGGSLRLSCAASGYAIRSAYMHWVRQAPGKGLEWVARIDPANGNTIYVDSVEGRFTISADNAKNSAYLQMNSLRAEDTAVYYCAMDLYSTSEYWGQGTLVTVSS
VL: DIQMTQSPSSLSASVGDRVTITCKTSQNIERYLNWYQQKPGKAPKLLIYAASSLQSGVPSRFSGSGSGTDFTLTISSLQPEDFATYFCLQDNAWPLTFGQGTKVEIKR
notes: effector-null human IgG1, kappa
B7: optimized anti-E-selectin antibody 1284 (antibody, human IgG1, kappa, V domains shown)
VH: EVQLVESGGGLVQPGGSLRLSCAASGYAIRSAYMHWVRQAPGKGLEWVARIDPANGNTIYVESVEGRFTISADNAKNSAYLQMNSLRAEDTAVYYCAMDLYSTSEYWGQGTLVTVSS
VL: DIQMTQSPSSLSASVGDRVTITCKTSQNIERYLNWYQQKPGKAPKLLIYAASSLQSGVPSRFSGSGSGTDFTLTISSLQPEDFATYFCLQDNAWPLTFGQGTKVEIKR
notes: as for B6
B8: optimized anti-E-selectin antibody 1444 (antibody, human IgG1, kappa, V domains shown)
VH: EVQLVESGGGLVQPGGSLRLSCAASGYAIRSAYMHWVRQAPGKGLEWVARIDPANGNTIYVDSVTGRFTISADNAKNSAYLQMNSLRAEDTAVYYCAMDLYSTSEYWGQGTLVTVSS
VL: DIQMTQSPSSLSASVGDRVTITCKTSQNIERYLNWYQQKPGKAPKLLIYAASSLQSGVPSRFSGSGSGTDFTLTISSLQPEDFATYFCLQDNAWPLTFGQGTKVEIKR
notes: as for B6
B9: optimized anti-E-selectin antibody 1448 (antibody, human IgG1, kappa, V domains shown)
VH: EVQLVESGGGLVQPGGSLRLSCAASGYAIRSAYMHWVRQAPGKGLEWVARIDPANGNTIYVDSVKERFTISADNAKNSAYLQMNSLRAEDTAVYYCAMDLYSTSEYWGQGTLVTVSS
VL: DIQMTQSPSSLSASVGDRVTITCKTSQNIERYLNWYQQKPGKAPKLLIYAASSLQSGVPSRFSGSGSGTDFTLTISSLQPEDFATYFCLQDNAWPLTFGQGTKVEIKR
notes: as for B6
B10: anti-E-selectin antibody 0039 chimera (antibody, human IgG1, kappa, V domains shown)
VH: QVQLKETGPGLVQPTQTLSITCTVSGFSLTGYYMQWVRQTPGKGLEWMGFIRSSGSTEYNSEFKSRLSISRDTSKNQVFLKMNSLKTEDTGVYYCARCPYKYSSFVYVGVMDAWGQGAPVTVSS
VL: EIVMTQSPTSMSTSIGERVTLNCKASQTVGINVDWYQQTPGQPPKLLIYGASNRHTGVPDRFTGSGFGRDFTLTISNVEAEDLAVYCCLQYGSIPHTFGPGTKLELKR
notes: as for B1

How the values were obtained:
[1] = molecular target: T1, cynomolgus monkey E-selectin, …; assay: flow cytometry, CHO cells
Procedure: (§1) Cells were maintained in growth medium at 37° C., 5% CO₂ and 95% air in a humidified incubator. Methotrexate or Zeocin were removed from the medium prior to culture for experiments. CHO-E selectin cells or P-selectin cells were detached from T-150 flasks using citric saline (135 mM KCl, 15 mM sodium citrate) and immediately re-calcified with the addition of CaCl₂) to the detached cells to a final concentration of 1 mM. Growth media was immediately added to the detached cells, then centrifuged at 300×g for 5 minutes at room temperature to pellet the cells. Cells were plated into 96-well V-bottom plates in cold CHO buffer consisting of phosphate buffered saline (PBS), pH 7.4 containing bovine serum albumin (BSA; Sigma-Aldrich) at final concentration of 1%, calcium chloride at final concentration of 1 mM, and sodium azide at a final concentration of 0.1%, for 5 minutes on wet ice. After incubation, the cells were centrifuged at 300×g for 2 minutes at 4° C. to remove the buffer.
(§2) After incubation, antibodies were removed and the cells were washed three times by centrifugation at 300×g for 1 minute at 4° C. and resuspended in cold CHO buffer. The washed cells were incubated for 30 minutes on wet ice with 100 μL of a 1:1000 dilution of APC-conjugated AffiniPure F(ab′)₂ Fragment Goat Anti-human IgG, Fcγ (Jackson Imnnunoresearch). The cells were washed three or four times prior to resuspension in CHO buffer for flow cytometric analysis. A Becton Dickinson LSRFortessa instrument using 640 nanometer laser line was used to acquire cell fluorescence data. Geometric mean fluorescence of cells was analyzed by FlowJo software package (FlowJo, LLC) and plotted against antibody concentration. The estimated EC₅₀ values were calculated using nonlinear regression analysis in the Prism suite (GraphPad, version 8) (Table 8).

[2] = molecular target: T2, human E-selectin, cell-surface expressed; assay: flow cytometry, CHO cells
Procedure: as §1, §2

[3] = molecular target: T3, cynomolgus monkey E-selectin …; assay: AlphaLISA competition vs sialyl Lewis A-PAA-biotin
[4] = molecular target: T2, human E-selectin, cell-surface expressed; assay: cell-based or functional assay

Binder | EC50 [1] | EC50 [2] | EC50 [3] | static neutralization of HL-60 cell adhesion, CHO-human E-selectin cells-IC50 [4]
B1 | 14 nM | 3.75 nM | – | –
B2 | 3.37 nM | 2.44 nM | < 1 nM | –
B3 | 3.76 nM | 1.99 nM | < 1 nM | –
B4 | 3.66 nM | 4.31 nM | < 1 nM | –
B5 | 1.73 nM | 4.43 nM | < 1 nM | 4.4 nM
B6 | – | – | – | 3.4 nM
B7 | – | – | – | 4.4 nM
B8 | – | – | – | 4.7 nM
B9 | – | – | – | 6.2 nM
B10 | 4.07 nM | 4.99 nM | > 63 nM | –
